Test results: US20160015831A1

Assays:
human CD22 (human) [1] = target: human CD22 (human) (UniProt P20273); experiment: flow cytometry, Daudi cells, 10 µg/mL
human CD22 (human) [2] = target: human CD22 (human) (UniProt P20273); experiment: flow cytometry, Ramos cells, 10 µg/mL
human CD22 (human) [3] = target: human CD22 (human) (UniProt P20273); experiment: flow cytometry, REH cells, 10 µg/ml
human CD22 (human) [4] = target: human CD22 (human) (UniProt P20273); experiment: flow cytometry, RL cells, 10 µg/mL
human CD22 (human) [5] = target: human CD22 (human) (UniProt P20273); experiment: flow cytometry, Daudi cells, 10 µg/ml
human CD22 (human) [6] = target: human CD22 (human) (UniProt P20273); experiment: flow cytometry, Raji cells, 10 µg/mL

For isotype control antibody human IgG, the MFI (human CD22 (human) [1]) was 8.3, the MFI (human CD22 (human) [2]) was 5.4 and the MFI (human CD22 (human) [3]) was 4.5. For the same substance, the MFI (human CD22 (human) [4]) was 12.8, the MFI (human CD22 (human) [5]) was 26.1 and the MFI (human CD22 (human) [6]) was 6.2.
